This is an account of results in US6350609B1, “Electrospraying for mass fabrication of chips and libraries” (New York University, priority 1997, dated 2002).

Where “and” joins values, the source holds several entries; their conditions need not be identical. Equal entries are not always repeated.

The target of one data set is Cytochrome C (equine) (Equus caballus, UniProt P00004). The experiment in a line: Mechano-chemical effect of a specific ligand on cross-linked protein film (isometric tension). It counts as biochemical. To be noted: electrospray deposited, reduction with dithionite.
For data set [1], the target named is T1, Alkaline phosphatase (AP) from bovine intestinal mucosa (Bos taurus, UniProt P19111).
T1 construct: purchased Sigma Chemical Co., St. Louis, Mo; host or cells: bovine intestinal mucosa
The experiment in a line: Recovery of specific AP activity (pNPP) after electrospray deposition or drying. The note with it: for Activity % (ratio of specific activity of the electrospray-deposited AP to that in the initial solution): +(3-4) kV, 1-50 nA, 0.1 μL/min, tip distance 10 mm, humidity 65 ± 5%. Type of data set: biochemical. From the text:
Materials. Alkaline phosphatase (AP) from bovine intestinal mucosa, p-nitrophenyl phosphate (pNPP substrate table set, Sigma Fast), trehalose and sucrose were obtained from Sigma Chemical Co., St. Louis, Mo. All other salts and buffer reagents were of analytical grade.
Design of Capillaries for Electrospray. Three different designs of the electrospray capillaries have been tested throughout this study. A first design, shown in FIG. 20A, is similar to the “nanoelectrospray ion source” (Wilm et al., 1994 and 1996) with a silver layer plated on the external surface of the capillary instead of gold. Glass capillaries with sealed ends were first treated for 20 seconds with an electrodeless plasma discharge at reduced pressure (0.01 Torr, discharge power of 10-20 W, in a Pyrex class chamber, 0.25 L). After such plasma cleaning, the glass capillaries were activated in an acidified solution of SnCl2 and 50 g of HCl per 1 L), washed with water and covered with a silver “mirror” (Yampolskii et al., 1981). This design is referred to as a capillary with an external electrode.
A second design, shown in FIG. 20B, is a modification of an electrospray capillary described by the laboratory of the present inventors (Morozov et al., 1993). In this capillary metal electrode (tungsten or stainless steel wire) is not exposed to a gas phase, thus reducing the risk of cornea discharge at high voltages. This second design is referred to as a capillary with an inner electrode.
In a third design, of the capillary (referred to as a bridge capillary), contact of protein solutions with a metal electrode was completely avoided by introducing a liquid bridge between them. […] Since the cross-section of the external capillary 5 is more than ten times larger than that of the inner capillary 7, the conductivity of the external capillary exceeds […] the conductivity of the inner capillary, making most of the current go through the large external capillary 5, whereas the internal plastic capillary 7 is used to supply protein solution.
A microprocessor controlled syringe pump (Cole-Parmer, Niles, Ill.) in combination with a 10 μL Hamilton microsyringe was used to feed the electrospray capillaries. The flow rate was 6-9 μL/h, and the outer diameter of the capillary tips varied in different experiments between 50 and 100 μm.
Chamber with Controlled Humidity. To control humidity during electrospray experiments with enzymes and to protect protein samples from contamination with dust particles present in the ambient air, the electrospray deposition was performed in a small (0.5 L) nearly cubic acrylic box, schematically presented in FIG. 21. A glass window was glued to one side of the box to enable sharp observation of the electrospray torch and substrate under a stereo microscope. The humidity and temperature inside the chamber were measured with solid state digital sensors (Fisher) with 2-4% precision for humidity and 0.2° C. for temperature. To increase the rate of sensor response and to keep the same humidity in all parts of the chamber, the air was stirred with a small fan. Dry air from a tank or air bubbled through water was introduced into the chamber until the required humidity was reached. The fan was then stopped, and electrospray initiated. Occasionally, portions of dry or wet gas were added during the spray experiment if the humidity deviated by more than 3-5% from the required level.
Mass Measurements of the Electrospray-Deposited Proteins. A home-built Quartz Crystal Microbalance (QCM; Sauerbrey, 1959) was used to measure the mass of the electrospray-deposited protein. The microbalance was made of commercial AT-cut quartz crystals (12-17 MHz, with silver electrodes of 5 mm in diameter) after removal of their protective shells. QCM calibration was performed using 0.1% solution of sugar in water. […]

For the next data set, the target named is T2, alkaline phosphatase (Bos taurus, UniProt P19111).
T2 construct: purchased Sigma Chemical Company, St. Louis, Mo
Description: Enzyme activity of electrospray-deposited alkaline phosphatase on nitrocellulose filter (BCIP/NBT substrate). Type of data set: biochemical. To be noted: deposited through polypropylene mask onto wetted nitrocellulose filter; BCIP/NBT staining. From the text: The electrospray conditions used in this example were similar to those used in Example 1.
Likewise, the membrane filters on which alkaline phosphatase was deposited was soaked in a standard alkaline phosphatase substrate (5-bromo-4-chloro-3-indolyl phosphate/nitro blue tetrazolium substrate system kit, Sigma, St. Louis, Mo.), resulting in the formation of an insoluble blue colored product of the alkaline phosphatase reaction, and the pattern was visualized as shown in FIG. 12B.

The conditions of data set [2]: Engström, 1961; cited from earlier work.
The next data set deals with Bovine intestinal AP (Bos taurus, UniProt P19111). To be noted: McComb et al., 1979; cited from earlier work.

Sequence of Cytochrome C (equine) (P00004 whole entry): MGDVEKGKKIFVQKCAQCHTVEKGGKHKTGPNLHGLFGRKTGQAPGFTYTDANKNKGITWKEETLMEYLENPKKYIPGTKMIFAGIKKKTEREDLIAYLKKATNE

On to `O=S(O)S(=O)O` [dithionite], for which the “Effect in Electrospray Deposit Sample % (relative change in isometric tension)” value on Cytochrome C (equine) is −41% and −49%.

B1: AP: Alkaline phosphatase (AP) from bovine intestinal mucosa, Sigma (protein, UniProt P19111 20-506, looked up)
Intestinal-type alkaline …: LVPVEEEDPAFWNRQAAQALDVAKKLQPIQTAAKNVILFLGDGMGVPTVTATRILKGQMNGKLGPETPLAMDQFPYVALSKTYNVDRQVPDSAGTATAYLCGVKGNYRTIGVSAAARYNQCKTTRGNEVTSVMNRAKKAGKSVGVVTTTRVQHASPAGAYAHTVNRNWYSDADLPADAQMNGCQDIAAQLVNNMDIDVILGGGRKYMFPVGTPDPEYPDDASVNGVRKRKQNLVQAWQAKHQGAQYVWNRTALLQAADDSSVTHLMGLFEPADMKYNVQQDHTKDPTLQEMTEVALRVVSRNPRGFYLFVEGGRIDHGHHDDKAYMALTEAGMFDNAIAKANELTSELDTLILVTADHSHVFSFGGYTLRGTSIFGLAPSKALDSKSYTSILYGNGPGYALGGGSRPDVNDSTSEDPSYQQQAAVPQASETHGGEDVAVFARGPQAHLVHGVEEETFVAHIMAFAGCVEPYTDCNLPAPTTATSIPD
On to B1, for which the “Activity % (ratio of specific activity of the electrospray-deposited AP to that in the initial solution)” value in data set [1] (Bridge Type capillary) is on record as 31 ± 12%; in data set [1] (capillary with External Electrode) it was 32 ± 9%; in data set [1] (capillary with Internal Electrode), 55 ± 10%. The “AP activity after electrospray deposition at high voltage and current” value in data set [1] (V>7-8 kV, I>500-1500 nA) is reported as “loses nearly all of its activity”. Also, the “AP activity preserved upon drying” value in data set [1] (addition of 50% (w/w) of disaccharide (sucrose or trehalose)) is on record as 100%. The “difference in specific AP activity of deposits made at low current before and after electrospray at 1500 nA from the same capillary” value in data set [1] (capillaries with internal and external electrodes) is given as “no notable difference”. For the same molecule, the “AP inactivation upon electrospray deposition” value in data set [1] (capillary with internal electrode, humidity A=65%, currents not exceeding 50 nA) is reported as “approximately 45%”; in data set [1] (the two other capillary designs (external electrode, bridge), similar currents and humidity), 70%. The “decrease of AP activity upon electrospray deposition under low humidity” value in data set [1] (rapid drying of droplets in gas phase, low humidity, +4 kV, internal electrode, 10-50 nA, 6 μL/h) came to 30%. For the same molecule, the “enzymatic activity after electrospray deposition” value with alkaline phosphatase was “retained”. For the same molecule, the pI in data set [2] is 4.4. For the same molecule, in the data set with Bovine intestinal AP, the “pH of exposure causing irreversible inactivation” value is listed as 4.5-5.0.
